Measured values reported in PMC10320493.

Experiments:
[1] = biological target: human δ-opioid receptor (pcDNA3.1-human DOR) (human) (UniProt P41143)
[2] = biological target: human μ-opioid receptor (pcDNA3.1-human MOR) (human) (UniProt P35372); experiment: radioligand binding
[3] = biological target: human μ-opioid receptor (pcDNA3.1-human MOR) (human) (UniProt P35372)
[4] = biological target: human μ-opioid receptor (pcDNA3.1-human MOR) (human) (UniProt P35372); remark: listed apart in the source

Gi/o-mediated cAMP inhibition (GloSensor, HEKT cells), pEC50 [1]	Kd [2] [nM]	pKd [2]	maximal net BRET in the G protein (GoA) dissociation assay [3]	Gi/o-mediated cAMP inhibition (GloSensor, HEKT cells), pEC50 [4]	Substance
9.69	–	–	–	–	DADLE (peptide)
–	4.37	8.36	0.15	8.65	[D-Ala2, N-MePhe4, Gly-ol]-enkephalin (peptide)
